Columns and labels:
[1] = Percentage aggregation of ADCs by size exclusion chromatography (SEC); assay type: physicochemical; conditions: humanized Ab3-CZ variants, Table 14
Experimental: The DAR and percentage aggregation of ADCs synthesized were determined by LC-MS and size exclusion chromatography (SEC), respectively.
Size exclusion chromatography was performed using a Shodex KW802.5 column in 0.2 M potassium phosphate pH 6.2 with 0.25 mM potassium chloride and 15% IPA at a flow rate of 0.75 ml/min. The peak area absorbance at 280 nm was determined for each of the high molecular weight and monomeric eluents by integration of the area under the curve. The % aggregate fraction of the conjugate sample was determined by dividing the peak area absorbance at 280 nm for the high molecular weight eluent by the sum of the peak area absorbances at […] of the high molecular weight and monomeric eluents multiplied by 100%.

cyno B7-H3 = test: Biacore T200 SPR binding kinetics, mAb capture, soluble ECD of cyno B7-H3; design: species or system cynomolgus monkey; conditions: 1:1 binding model
cyno B7-H3, sequence (as listed by the source): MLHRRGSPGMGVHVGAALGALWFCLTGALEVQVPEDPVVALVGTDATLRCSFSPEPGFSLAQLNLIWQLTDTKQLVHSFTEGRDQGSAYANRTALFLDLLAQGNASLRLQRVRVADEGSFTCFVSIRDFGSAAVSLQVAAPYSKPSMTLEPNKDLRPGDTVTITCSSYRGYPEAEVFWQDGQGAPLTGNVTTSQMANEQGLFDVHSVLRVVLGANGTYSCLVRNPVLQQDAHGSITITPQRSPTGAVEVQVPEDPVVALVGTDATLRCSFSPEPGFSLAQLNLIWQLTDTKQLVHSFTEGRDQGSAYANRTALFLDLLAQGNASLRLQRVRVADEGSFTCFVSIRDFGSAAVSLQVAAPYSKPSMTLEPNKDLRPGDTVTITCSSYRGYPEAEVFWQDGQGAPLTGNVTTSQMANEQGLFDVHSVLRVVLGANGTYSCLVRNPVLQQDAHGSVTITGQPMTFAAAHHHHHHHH
Experimental: [The source words this procedure for another species and reports this species under the same test.] (§1) The binding affinity of the purified anti-B7-H3 monoclonal antibodies was determined by surface […]. […] The binding kinetics were derived from SPR measurements using a Biacore T200 instrument and a mAb capture approach (as described in the materials and methods below).
(§2) Biacore T200 SPR instruments were used to measure the binding kinetics of human B7-H3 (4Ig-B7-H3 variant) (analyte) binding to various mAbs (ligands). The assay format was Fc-based capture via immobilized anti-mouse (Fc) (Pierce 31170) or immobilized anti-human (Fc) (Pierce 31125). A standard amine coupling protocol was employed to immobilize the capture reagents via primary amines to the carboxy-methyl (CM) dextran surface of CM5 sensorchips (Biacore); capture antibodies were coupled to a level of approximately 5000RU. For binding kinetic measurements the assay buffer was HBS-EP+ (Biacore): 10 mM Hepes, pH7.4, 150 mM NaCl, 3 mM EDTA, 0.05% polysorbate 20. During the assay, all measurements were referenced against the capture surface alone. Each assay cycle consisted of the following steps: 1) Capture of ligand to approximately 50RU; 2) Analyte injection over both reference and test surface, 240 μL at 80 μL/min, after which the dissociation was monitored for 900 seconds at 80 μL/min; 3) Regeneration of capture surface with low pH glycine. For kinetic determinations analyte injections were 3-point, 9-fold dilution series of 900 nM, 100 nM and 11.11 nM, buffer only injections were included for secondary referencing. Data were processed and fit to a 1:1 binding model using Biacore T200 Evaluation Software to determine the binding kinetic rate constants, ka (on-rate) and kd (off-rate), and the equilibrium dissociation constant (affinity, KD).

[2] = biological target: T1, human B7-H3 (4Ig-B7-H3 variant) (Homo sapiens, UniProt Q5ZPR3); test: Biacore T200 SPR binding kinetics, mAb capture, soluble ECD of human B7-H3; conditions: 1:1 binding model
T1 construct: His tag (6xHis) (C)
T1 sequence (Q5ZPR3 with tags, fused parts or gaps): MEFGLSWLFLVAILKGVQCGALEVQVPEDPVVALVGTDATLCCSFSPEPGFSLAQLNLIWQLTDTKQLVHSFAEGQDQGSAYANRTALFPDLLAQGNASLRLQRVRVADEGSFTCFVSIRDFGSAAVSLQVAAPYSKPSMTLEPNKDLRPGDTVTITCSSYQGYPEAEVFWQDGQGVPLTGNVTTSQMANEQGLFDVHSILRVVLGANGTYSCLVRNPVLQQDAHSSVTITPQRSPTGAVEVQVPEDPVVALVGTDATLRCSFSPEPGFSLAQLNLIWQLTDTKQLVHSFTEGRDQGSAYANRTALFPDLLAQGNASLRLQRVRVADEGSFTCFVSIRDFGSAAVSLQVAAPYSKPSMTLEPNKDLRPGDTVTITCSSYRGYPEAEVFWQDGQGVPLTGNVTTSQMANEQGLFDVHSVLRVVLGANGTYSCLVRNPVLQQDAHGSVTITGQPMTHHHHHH
Experimental: as §1, §2

Molecule | % agg by SEC [1] [%] | ka (1/Ms) cynoB7-H3 (cyno B7-H3) [M⁻¹ s⁻¹] | kd (1/s) cynoB7-H3 (cyno B7-H3) [s⁻¹] | ka (1/Ms) huB7-H3 [2] [M⁻¹ s⁻¹] | kd (1/s) huB7-H3 [2] [s⁻¹] | KD (M) cynoB7-H3 (cyno B7-H3) | KD (M) huB7-H3 [2]
huAb3v4-CZ (conjugate, drug conjugate CZ; Synthetic huAb3VH.1, huAb3v1, and huAb3v4 VH amino acid sequence; Synthetic huAb3VL.1b, huAb3v4, huAb3v5, and huAb3v6 VL amino acid sequence) VH: EVQLVQSGAEVKKPGSSVKVSCKASGYTFSSYWMHWVRQAPGQGLEWMGLIHPDSGSTNYNEMFKNRVTITADKSTSTAYMELSSLRSEDTAVYYCARGGRLYFDYWGQGTTVTVSS VL: DVVMTQSPLSLPVTPGEPASISCRSSQSLVHSNGDTYLRWYLQKPGQSPQLLIYKVSNRFSGVPDRFSGSGSGTDFTLKISRVEAEDVGVYYCSQSTHVPYTFGGGTKVEIK | 3.1 | – | – | – | – | – | –
Ab11: murine anti-B7-H3 mAbs; mouse hybridoma derived (antibody, V domains shown) VH: EVKLVESGGGLVQPGGSLRLSCATSGFTFTNYYMSWVRQPPGKALEWLGFIRNKANDYTTEYSASVKGRFTISRDNSQSILYLQMNTLRAEDSATYYCARESPGNPFAYWGQGTLVTVSA VL: DIVMTQSPSSLTVTAGEKVTMTCKSSQSLLNSGTQKNFLTWYQQKPGQPPKLLIYWASTRESGVPDRFTGSGSGTDFTLTISSVQAEDLAVYFCQNDYIYPLTFGAGTKLELK | – | 27000 | 7.2e-05 | 20000 | 0.00089 | – | –
Ab7: mouse hybridoma derived anti-B7-H3 monoclonal antibodies (mAbs) (antibody, V domains shown) VH: EVQLVESGENLVKPGGSLKLSCAASGFSFRGYGMSWVRQTPDKRLEWVAAISTGGNYTYYPDSVQGRFTISRDNANNTLYLQMSSLKSEDTAMYYCARRGGNYAGFAYWGQGTLVTVSA VL: DIQMTQSPASLSVSVGETVTITCRPSENIYSNLAWYQQKQGKSPQLLVYAATNLADGVPSRFSGSGSGTQYSLKINSLQSEDFGTYYCQHFWGTPFTFGSGTKLEIK | – | – | – | – | – | little observable binding | little observable binding
Ab17: mouse hybridoma derived anti-B7-H3 monoclonal antibodies (mAbs) (antibody, V domains shown) VH: EVKLVESGGGLVQPGGSLKLSCAASGFTFSSYIMSWVRQTPEKRLEWVASIVSSNITYYPDSMKGRFTISRDNARNILYLQMSSLKSEDTAMYYCARSGTRAWFAYWGQGTLVTVSA VL: DIVLTQSPASLAVSLGQRATISCRASKSVSTSAYSYMHWYQQKPGQPPKLLIYLASNLESGVPARFSGSGSGTDFTLNIHPVEEEDAATYYCQHSRELPYTFGGGTKLEIK | – | 510000 | 1e-05 | 540000 | 1.9e-05 | – | –
Ab6: mouse hybridoma derived anti-B7-H3 monoclonal antibodies (mAbs) (antibody, V domains shown) VH: QVQLQQSGAELMKPGASVKISCKATGYTFSRYWIEWVKQRPGHGLEWIGEILPGSGSTNYNEKFKGKATFTADTSSNTAYMQVSSLTSEDSAVHYCARRGYGYVPYALDYWGQGTSVTVSS VL: EIQMTQTTSSLSASLGDRVTISCRASQDISNSLNWYQQKPDGTVNLLIYYTSRLYSGVPSRFSGSGSGTDYSLTISNLEQEDIATYFCQQGNTLPYTFGGGTKLEIK | – | 28000 | 0.012 | 12000 | 0.01 | – | –
Ab2: mouse hybridoma derived anti-B7-H3 monoclonal antibodies (mAbs) (antibody, V domains shown) VH: QVQLQQPGAELVKPGASVKLSCKASGYTFTSYWMHWVKQRPGQGLEWIGMIHPDSGTTNYNEKFRSKATLTVDKSSSTAYMQLSSLTSEDSAVYYCAVYYGSTYWYFDVWGTGTTVTVSS VL: DVVMTQTPLSLPVSLGDQAYISCRSSQSLVHINGNTYLHWYRQKPGQSPKLLIYKVSNRFSGVPDRFSGSGSGTDFTLKISRVEAEDLGVYFCSQSTHFPFTFGSGTKLEIK | – | 230000 | 0.011 | 120000 | 0.0029 | – | –

From patent US20200338209A1, “ANTI-B7-H3 ANTIBODIES AND ANTIBODY DRUG CONJUGATES” (AbbVie Inc., priority 2016, published 2020)
